Legend:
Assay in all cases: multimer staining
[1] = target: T1, SARS-CoV-2 Spike protein peptide on HLA-A*24:02 (human)
T1 peptide: QYIKWPWYIW

[2] = target: T2, SARS-CoV-2 Spike protein peptide on HLA-A*23:01 (human)
T2 peptide: QYIKWPWYIW

[3] = target: T3, SARS-CoV-1 Spike protein peptide on HLA-A*24:02 (human)
T3 peptide: QYIKWPWYVW

Measured: binding result

B1: TCRQYI (TCR)
alpha TRAV20*01 TRAJ32*01 CDR3: CAALNYGGATNKLIF
beta TRBV4-3*01 TRBJ2-7*01 CDR3: CASSPSGGAYEQYF
recognises: all assays above

Reference: article doi:10.1101/2022.05.23.492800 (2022)
